For data set [1], the target named is T1, Lrp (Dickeya oryzae EC1, UniProt A0AB39ITC9 1-164).
T1 sequence: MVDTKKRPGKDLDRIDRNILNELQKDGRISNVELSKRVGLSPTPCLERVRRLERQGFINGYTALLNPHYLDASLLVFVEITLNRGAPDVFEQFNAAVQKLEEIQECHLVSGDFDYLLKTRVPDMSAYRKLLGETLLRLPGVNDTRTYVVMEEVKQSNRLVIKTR
In words: EMSA; 1 uM Lrp, 20 fmol probe. The settings on record: protein: recombinant; tags: GST tag removed with PreScission protease (pGEX-6P-1, BamHI/EcoRI-site primers; N-terminal vector residues may remain); chain copies: 2; label: biotin. Background: Mobility shift assays separate free from complexed probe on a gel.

Data set [2] concerns the target T1, Lrp. The experiment in a line: EMSA. The settings on record: protein: recombinant; tags: GST tag removed with PreScission protease (pGEX-6P-1, BamHI/EcoRI-site primers; N-terminal vector residues may remain); chain copies: 2.

Results on two molecules are retold here after PMC12145271, “A Lrp/AsnC Family Transcriptional Regulator Lrp Is Essential for the Pathogenicity of Dickeya oryzae”.

B1: PzmsA(24) (dsDNA)
DNA 1: GTGTAATTATGGGCGTGCTCCGGG
DNA 2: CCCGGAGCACGCCCATAATTACAC
Take B1: in the data set with Lrp [1], the binding result is reported as “binds”.

B2: PzmsA(24)PM (dsDNA)
DNA 1: GTGTGAAAAGAGTGAGAGACCACG
DNA 2: CGTGGTCTCTCACTCTTTTCACAC
Take B2: the binding result with Lrp [2] was “no binding”.
